Measurements taken from patent publication US20080044360A1 (COLLAGEN MEDICAL, published 2008).
Where two headings read alike, the source gives them in different places. Bridge positions count the residues as written; N and C are the ends. Square brackets hold non-standard residues; d marks the D form. Primed or numbered codes have the meaning given here. Side chains are listed from the residue outwards. Ends that are not written are not given here. Gd^D = GdDOTAGA (gadolinium DOTAGA chelate); Bip = N[C@@H](Cc1ccc(-c2ccccc2)cc1)C(=O)O; Dab = NCC[C@H](N)C(=O)O; Gd^T″ = GdDTPA-thiourea; Dap = NC[C@H](N)C(=O)O

What was measured:
Assay in all cases: dried collagen assay
[1] = target: T1, human collagen type I, acid soluble, extracted from placenta (Sigma C7774) (human, UniProt P02452 162-1218; P08123 80-1119)
T1 construct: tissue extract, gelled and dried in wells; also called dried human collagen; h-Collagen
T1 sequence (P02452 162-1218 limits assumed, chain 1 of 2): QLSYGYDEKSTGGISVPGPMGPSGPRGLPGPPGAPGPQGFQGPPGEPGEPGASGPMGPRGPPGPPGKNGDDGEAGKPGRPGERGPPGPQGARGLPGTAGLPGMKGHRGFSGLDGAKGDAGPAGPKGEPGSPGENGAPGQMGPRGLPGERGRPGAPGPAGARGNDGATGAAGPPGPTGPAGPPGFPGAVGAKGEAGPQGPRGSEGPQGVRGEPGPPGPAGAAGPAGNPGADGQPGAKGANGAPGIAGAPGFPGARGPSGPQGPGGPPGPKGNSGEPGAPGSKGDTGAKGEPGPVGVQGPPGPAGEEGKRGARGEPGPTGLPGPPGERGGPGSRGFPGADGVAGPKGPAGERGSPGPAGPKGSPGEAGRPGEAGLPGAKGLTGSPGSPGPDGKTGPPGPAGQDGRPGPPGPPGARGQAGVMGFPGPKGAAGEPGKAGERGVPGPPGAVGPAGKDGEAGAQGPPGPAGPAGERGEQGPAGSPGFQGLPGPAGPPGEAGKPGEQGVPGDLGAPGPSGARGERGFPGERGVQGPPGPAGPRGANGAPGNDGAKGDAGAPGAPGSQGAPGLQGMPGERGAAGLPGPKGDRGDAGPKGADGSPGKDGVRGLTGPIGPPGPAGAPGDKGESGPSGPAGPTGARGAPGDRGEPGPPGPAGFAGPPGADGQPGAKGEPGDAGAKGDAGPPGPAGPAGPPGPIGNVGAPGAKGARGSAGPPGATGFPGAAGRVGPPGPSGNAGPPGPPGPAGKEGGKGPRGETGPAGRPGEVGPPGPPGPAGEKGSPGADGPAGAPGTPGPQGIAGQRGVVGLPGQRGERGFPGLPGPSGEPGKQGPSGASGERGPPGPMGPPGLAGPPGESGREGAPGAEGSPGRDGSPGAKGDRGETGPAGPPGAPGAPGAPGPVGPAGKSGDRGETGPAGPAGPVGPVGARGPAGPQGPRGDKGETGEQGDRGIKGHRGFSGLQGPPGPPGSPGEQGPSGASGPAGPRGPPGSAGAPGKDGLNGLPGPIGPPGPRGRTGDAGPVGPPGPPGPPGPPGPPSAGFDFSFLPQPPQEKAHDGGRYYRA
T1 sequence (P08123 80-1119 limits assumed, chain 2 of 2): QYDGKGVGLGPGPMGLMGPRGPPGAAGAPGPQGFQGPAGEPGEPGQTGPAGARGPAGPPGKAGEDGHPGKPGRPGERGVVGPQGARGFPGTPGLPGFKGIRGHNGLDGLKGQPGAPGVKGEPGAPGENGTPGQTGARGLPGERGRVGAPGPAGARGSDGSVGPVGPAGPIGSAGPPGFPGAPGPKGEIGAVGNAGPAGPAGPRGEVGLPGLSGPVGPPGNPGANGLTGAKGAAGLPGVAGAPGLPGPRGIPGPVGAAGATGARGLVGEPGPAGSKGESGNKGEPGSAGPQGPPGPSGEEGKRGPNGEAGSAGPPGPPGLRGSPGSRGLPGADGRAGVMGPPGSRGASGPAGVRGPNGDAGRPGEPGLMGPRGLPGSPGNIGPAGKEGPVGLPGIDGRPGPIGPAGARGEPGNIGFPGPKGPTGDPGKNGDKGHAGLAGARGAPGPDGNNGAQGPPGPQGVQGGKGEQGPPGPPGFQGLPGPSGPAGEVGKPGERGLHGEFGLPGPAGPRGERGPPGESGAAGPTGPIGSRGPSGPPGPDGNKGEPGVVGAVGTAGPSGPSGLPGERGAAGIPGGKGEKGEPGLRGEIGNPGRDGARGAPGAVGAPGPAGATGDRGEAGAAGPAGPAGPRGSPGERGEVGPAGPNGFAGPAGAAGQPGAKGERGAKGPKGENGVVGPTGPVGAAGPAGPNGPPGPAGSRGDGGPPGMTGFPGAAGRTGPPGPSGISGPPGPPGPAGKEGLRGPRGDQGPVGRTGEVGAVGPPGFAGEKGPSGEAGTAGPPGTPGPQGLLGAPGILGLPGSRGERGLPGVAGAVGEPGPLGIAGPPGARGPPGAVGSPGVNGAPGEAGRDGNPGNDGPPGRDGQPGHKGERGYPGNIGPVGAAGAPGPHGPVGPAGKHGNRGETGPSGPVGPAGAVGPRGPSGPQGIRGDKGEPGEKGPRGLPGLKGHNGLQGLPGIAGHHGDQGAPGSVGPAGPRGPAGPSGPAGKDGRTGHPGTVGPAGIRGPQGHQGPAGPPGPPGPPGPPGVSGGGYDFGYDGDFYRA
Protocol: An additional 90 μL is reserved in a HPLC glass vial as a measure of the total concentration.

[2] = target: T1, human collagen type I, acid soluble, …; remark: listed apart in the source
[3] = target: T2, rat collagen, acid soluble, type I, rat tail (Upstate 08-115) (rat, UniProt P02454 152-1207; P02466 86-1125)
T2 construct: tissue extract, gelled and dried in wells; also called dried rat collagen
T2 sequence (P02454 152-1207, chain 1 of 2): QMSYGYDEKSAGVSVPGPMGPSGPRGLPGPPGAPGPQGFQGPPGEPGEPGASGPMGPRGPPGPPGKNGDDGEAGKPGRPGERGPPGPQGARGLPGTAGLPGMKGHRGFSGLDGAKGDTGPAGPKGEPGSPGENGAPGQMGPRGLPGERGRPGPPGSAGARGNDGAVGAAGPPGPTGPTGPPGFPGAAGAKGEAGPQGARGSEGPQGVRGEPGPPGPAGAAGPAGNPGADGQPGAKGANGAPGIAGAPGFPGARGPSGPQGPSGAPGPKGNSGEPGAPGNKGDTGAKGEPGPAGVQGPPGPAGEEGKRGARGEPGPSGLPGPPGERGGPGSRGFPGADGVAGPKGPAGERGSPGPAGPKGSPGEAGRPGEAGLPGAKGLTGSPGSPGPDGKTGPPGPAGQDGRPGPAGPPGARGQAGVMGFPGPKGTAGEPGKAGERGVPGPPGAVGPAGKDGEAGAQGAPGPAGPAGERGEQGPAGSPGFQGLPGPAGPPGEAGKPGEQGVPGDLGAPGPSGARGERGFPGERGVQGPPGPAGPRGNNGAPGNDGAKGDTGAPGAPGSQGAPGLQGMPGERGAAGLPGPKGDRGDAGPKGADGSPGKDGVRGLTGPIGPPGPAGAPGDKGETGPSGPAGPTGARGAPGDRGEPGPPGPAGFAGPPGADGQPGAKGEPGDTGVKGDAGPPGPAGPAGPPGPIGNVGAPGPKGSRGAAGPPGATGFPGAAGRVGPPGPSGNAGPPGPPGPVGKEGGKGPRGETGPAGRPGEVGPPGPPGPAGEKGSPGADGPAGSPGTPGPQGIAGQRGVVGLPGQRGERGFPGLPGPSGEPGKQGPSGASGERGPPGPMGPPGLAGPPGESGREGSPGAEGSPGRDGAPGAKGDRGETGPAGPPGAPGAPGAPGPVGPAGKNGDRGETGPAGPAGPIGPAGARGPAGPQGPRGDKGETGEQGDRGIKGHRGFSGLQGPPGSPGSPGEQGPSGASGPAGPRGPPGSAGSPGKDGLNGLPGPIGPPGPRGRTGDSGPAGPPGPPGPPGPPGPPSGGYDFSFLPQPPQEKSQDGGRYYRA
T2 sequence (P02466 86-1125, chain 2 of 2): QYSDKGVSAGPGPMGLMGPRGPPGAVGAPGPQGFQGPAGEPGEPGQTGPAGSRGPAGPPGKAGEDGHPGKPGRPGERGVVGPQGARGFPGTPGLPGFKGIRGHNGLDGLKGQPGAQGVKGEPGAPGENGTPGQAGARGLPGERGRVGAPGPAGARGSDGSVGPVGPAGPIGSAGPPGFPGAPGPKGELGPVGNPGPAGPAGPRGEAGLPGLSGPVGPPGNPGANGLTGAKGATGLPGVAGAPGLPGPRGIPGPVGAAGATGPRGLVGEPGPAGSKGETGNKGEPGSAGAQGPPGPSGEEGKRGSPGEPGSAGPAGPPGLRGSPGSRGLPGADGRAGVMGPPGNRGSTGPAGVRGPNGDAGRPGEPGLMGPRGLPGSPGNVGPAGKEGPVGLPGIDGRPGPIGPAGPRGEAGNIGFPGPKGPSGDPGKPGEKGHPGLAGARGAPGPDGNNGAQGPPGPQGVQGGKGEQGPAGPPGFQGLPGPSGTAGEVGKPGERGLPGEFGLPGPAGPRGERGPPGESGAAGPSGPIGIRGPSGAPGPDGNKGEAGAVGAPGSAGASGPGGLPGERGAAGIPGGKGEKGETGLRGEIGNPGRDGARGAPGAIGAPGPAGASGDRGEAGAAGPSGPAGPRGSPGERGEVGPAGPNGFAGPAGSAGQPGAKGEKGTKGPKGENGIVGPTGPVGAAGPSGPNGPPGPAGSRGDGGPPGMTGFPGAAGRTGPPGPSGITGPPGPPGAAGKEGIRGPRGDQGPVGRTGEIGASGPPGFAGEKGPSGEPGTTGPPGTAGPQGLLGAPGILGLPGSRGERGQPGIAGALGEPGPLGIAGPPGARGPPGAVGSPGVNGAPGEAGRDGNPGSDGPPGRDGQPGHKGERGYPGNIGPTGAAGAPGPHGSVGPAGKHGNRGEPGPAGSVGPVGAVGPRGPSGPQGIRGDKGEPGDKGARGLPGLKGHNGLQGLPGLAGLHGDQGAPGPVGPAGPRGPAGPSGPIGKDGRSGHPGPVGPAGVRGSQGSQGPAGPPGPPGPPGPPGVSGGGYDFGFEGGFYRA

Row | Binder | % bound [1] [%] | % bound [2] [%] | % bound [3] [%]
1 | NWKCWGVVKWECIWA (disulfide 4-12 (inferred), cyclic, disulfide) [SEQ ID NO 5] | 24 |  | 
2 | WWACQKGQHDWEKCHWL (disulfide 4-14 (inferred), cyclic, disulfide) [SEQ ID NO 93] | 5 |  | 
3 | WTDCQWMDEQLWTCRWD (disulfide 4-14 (inferred), cyclic, disulfide) [SEQ ID NO 94] | 21 |  | 
4 | WTDCQWMDEQIWTCRWD (disulfide 4-14 (inferred), cyclic, disulfide) [SEQ ID NO 95] | 5 |  | 
5 | WQLCSSRNDHVAYCFVS (disulfide 4-14 (inferred), cyclic, disulfide) [SEQ ID NO 96] | 17 |  | 
6 | WISCESSEEKISYCWRA (disulfide 4-14 (inferred), cyclic, disulfide) [SEQ ID NO 97] | 13 |  | 
7 | WWGCRQGTGEHWSHCMWF (disulfide 4-15 (inferred), cyclic, disulfide) [SEQ ID NO 100] | 67 |  | 
8 | WWTCHMTWSGQWDSCKWH (disulfide 4-15 (inferred), cyclic, disulfide) [SEQ ID NO 101] | 56 |  | 
9 | WAYCMTDPSGKYRYCQNW (disulfide 4-15 (inferred), cyclic, disulfide) [SEQ ID NO 102] | 31 |  | 
10 | TWQCSGNQKWSCEWF (disulfide 4-12 (inferred), cyclic, disulfide) [SEQ ID NO 6] | 20 |  | 
11 | YPACDDQTHLWNLACWPA (disulfide 4-15 (inferred), cyclic, disulfide) [SEQ ID NO 103] | 2 |  | 
12 | YHACYQAGCYIW (disulfide 4-9 (inferred), cyclic, disulfide) [SEQ ID NO 107] | 9 |  | 
13 | NWYCTGTKSWECFWK (disulfide 4-12 (inferred), cyclic, disulfide) [SEQ ID NO 7] | 11 |  | 
14 | GWQCFGASDWHCTWV (disulfide 4-12 (inferred), cyclic, disulfide) [SEQ ID NO 8] | 9 |  | 
15 | TWNCYGVTEWHCYMI (disulfide 4-12 (inferred), cyclic, disulfide) [SEQ ID NO 9] | 7 |  | 
16 | DWTCSGDEYTWHCNYE (disulfide 4-13 (inferred), cyclic, disulfide) [SEQ ID NO 17] | 78 |  | 
17 | {Gd^T″}-GYK([Tyr-Gly-Gd^T″])WHCTTYFPHHYCLYG (disulfide 6-15 (inferred); not fully specified (C-terminus)) [Compound ID 981] |  | 73 | 81

Row | Binder | % bound [1] [%] | % bound [2] [%] | % bound [3] [%]
18 | {Gd^T″}-GVK([Val-Gly-Gd^T″])WHCTTYFPHHYCLYG (disulfide 6-15 (inferred); not fully specified (C-terminus)) [Compound ID 982] |  | 40 | 47
19 | {Gd^T″}-GFK([Phe-Gly-Gd^T″])WHCTTYFPHHYCLYG (disulfide 6-15 (inferred); not fully specified (C-terminus)) [Compound ID 983] |  | 58 | 59
20 | {Gd^T″}-GHK([His-Gly-Gd^T″])WHCTTYFPHHYCLYG (disulfide 6-15 (inferred); not fully specified (C-terminus)) [Compound ID 984] |  | 67 | 69
21 | {Gd^D}-GK([Gly-Gd^D])WHCTTK(Gd^D)FPHHYCLY[Bip] (disulfide 5-14) [Compound ID 1001] |  | 83 | 81
22 | {Gd^T″}-[Dap](Gd^T″)[Dap]([Dap-Gd^T″-Gd^T″])WHCYTYFPHHYCVYG (disulfide 5-14; also: X2: inner Dap bears two Gd^T) [Compound ID 1002] |  | 44 | 45
23 | {Gd^T″}-GK([Gly-Gd^T″])WHCYTK(Gd^T″)FPHHYCVY[Bip] (disulfide 5-14) [Compound ID 1004] |  | 91 | 90
24 | {Gd^T″}-GK([Gly-Gd^T″])WHCYTK(Gd^T″)FPHHYCK(Gd^T″)Y[Bip] (disulfide 5-14) [Compound ID 1012] |  | 91 | 92
25 | {Gd^T″}-GK([Gly-Gd^T″])WHCYT[Dab](Gd^T″)FPHHYCVY[Bip] (disulfide 5-14) [Compound ID 1005] |  | 90 | 95
26 | {Gd^T″}-GK([Gly-Gd^T″])WHCYT[Dap](Gd^T″)FPHHYCVY[Bip] (disulfide 5-14) [Compound ID 1006] |  | 89 | 87
27 | {Gd^T″}-G[Dab]([Gly-Gd^T″])WHCYTK(Gd^T″)FPHHYCVY[Bip] (disulfide 5-14) [Compound ID 1007] |  | 87 | 92
28 | {Gd^T″}-K(Gd^T″)WHCYTK(Gd^T″)FPHHYCVY[Bip] (disulfide 4-13) [Compound ID 1008] |  | 94 | 93
29 | {Gd^T″}-GK([Gly-Gd^T″])WHCYTK(Gd^T″)FPHHYCVY[Bip]R (disulfide 5-14) [Compound ID 1009] |  | 93 | 96
30 | {Gd^T″}-GK([Gly-Gd^T″])WHCYTK(Gd^T″)FPHHYCVYYY (disulfide 5-14 (inferred)) [Compound ID 1010] |  | 92 | 89
31 | {Gd^D}-K(Gd^D)K(Gd^D)GWHCYTYFPHHYCTYG (disulfide 6-15 (inferred)) [Compound ID 1015] |  | 29 | 30
32 | {Gd^D}-K(Gd^D)K(Gd^D)AWHCYTYFPHHYCVYG (disulfide 6-15 (inferred)) [Compound ID 1016] |  | 48 | 50
33 | {Gd^D}-K(Gd^D)K(Gd^D)LWHCYTYFPHHYCVYG (disulfide 6-15 (inferred)) [Compound ID 1017] |  | 25 | 18
34 | {Gd^D}-K(Gd^D)K(Gd^D)YWHCYTYFPHHYCVYG (disulfide 6-15 (inferred)) [Compound ID 1018] |  | 53 | 55
